Source: article PMC7505961
One block for each substance: values may come before it.

Tests used:
[1] = system: cGAS (human); experiment: EMSA; details: 5 mM Mg2+, 20 mM Tris-HCl pH 7.6, 60 mM NaCl, 5 mM MgCl2, 10 ul, 30 min on ice, 80 nM (145/185) or 10 nM (2450/oligo) substrate, 1.5% agarose, 0.2x TBE
[2] = molecular target: 145-nucleosome ("601" nucleosome core particle: 145 bp Widom 601 DNA with recombinant histone octamer); experiment: native gel or EMSA; FAM-labelled nucleosome (0.8 pmol; oligonucleosomes 0.1 pmol) mixed with different amounts of cGAS in 20 mM Tris-HCl pH 7.6, 60 mM NaCl, 5 mM MgCl2, total volume 10 ul; on ice 30 min; 1.5% agarose gel, 0.2x TBE; Kd from percent bound nucleosome against cGAS concentration
[3] = molecular target: 185-nucleosome (185 bp dsDNA, Widom 601 extended by 20 bp on both ends, with recombinant histone octamer); experiment: as above
[4] = molecular target: Oligonucleosomes (2,450 bp dsDNA reconstituted with recombinant histone octamers); experiment: as above
[5] = molecular target: 145-nucleosome ("601" nucleosome core particle: 145 bp Widom 601 DNA with recombinant histone octamer)
[6] = molecular target: 185-nucleosome (185 bp dsDNA, Widom 601 extended by 20 bp on both ends, with recombinant histone octamer)

Substance: 145-dsDNA
- Kd [1]: 350 nM

Substance: 185-nucleosome
- Kd [1]: 172 nM

Substance: 145-tailless nucleosome
- Kd ([1]; tailless histones: H4 del1-20, H3 del1-37, H2A del1-15, H2B del1-31): 79 nM

- Kd [2]: 67 nM
- Kd [3]: 172 nM
- Kd [4]: 66 nM
- amount of cGAMP after 3 h incubation with cGAS, ATP and GTP (UPLC-MS/MS), against that induced by dsDNA (% of that induced by dsDNA) [5]: 15
- initial velocity of cGAMP generation in vitro (UPLC-MS/MS; 2 uM cGAS, ATP, GTP, 37 °C), against that induced by 145-dsDNA (ratio to 145-dsDNA) [5]: 0.1
- amount of cGAMP after 3 h incubation with cGAS, ATP and GTP (UPLC-MS/MS), against that induced by dsDNA (% of that induced by dsDNA) [6]: 15
Substance: human cGAS (cGMP-AMP synthase) (from UniProt Q8N884 1-522) (enzyme)

Substance: 145-nucleosome
- Kd [1]: 67 nM

Substance: Oligonucleosomes
- Kd [1]: 66 nM

Substance: 185-dsDNA
- Kd [1]: 394 nM

Substance: 2,450-dsDNA
- Kd [1]: 68 nM
